Results on two substances are retold here after paper PMC2248580.

The target of this test is human activated blood coagulation factor X (FXa) (human). Put plainly: SPR; […]; 37°C; HBS (10 mM Hepes, 150 mM NaCl, 5 mM CaCl2, 0.005% P20, pH 7.4); Langmuir fit; […].

“CbII, the basic subunit of the CbI-CbII complex (β-neurotoxin) from Pseudocerastes fieldi venom (enzyme)” had an equilibrium dissociation constant (Kd) of 20 nM, a koff of 0.0085 s⁻¹ and a kon of 420000 M⁻¹ s⁻¹.

With “bAhp, the basic PLA2 from Gloydious (Agkistrodon) halys pallas venom (from UniProt O42187 17-138) (enzyme)”, the dissociation constant Kd was 400 nM, the off-rate constant (koff) turned out to be 0.016 s⁻¹ and the on-rate (kon) was 40000 M⁻¹ s⁻¹.
